Data as given in article PMC3444267.
One block for each substance: values may come before it.

What was measured:
Assay in all cases: semi-native SDS-PAGE with anti-HA immunoblot
[1] = molecular target: BnGLP12.1:HA (Brassica napus)
[2] = molecular target: BnGLP12.2:HA (Brassica napus)
[3] = molecular target: BnGLP3.2:HA (Brassica napus)
[4] = molecular target: BnGLP3.1:HA (Brassica napus)
[5] = molecular target: BnGLP8:HA (Brassica napus)

Substance: BnGLP12.1:HA (natural protein)
stoichiometry N [1]: 6

Substance: BnGLP12.2:HA (natural protein)
stoichiometry N [2]: 6

Substance: BnGLP3.2:HA (natural protein)
stoichiometry N [3]: 6

Now from value to substance:

stoichiometry N [4]: 6
Substance: BnGLP3.1:HA (natural protein)

stoichiometry N [5]: 6
Substance: BnGLP8:HA (natural protein)
